Data from publication PMC4824069.

Target: HEY1 (UniProt Q9Y5J3)
Assay: co-IP of Flag-DPF3a and HA-HEY1
Conditions: reference: wild type; sites S348

Sequence of UniProt Q9Y5J3 (Q9Y5J3 whole entry, looked up): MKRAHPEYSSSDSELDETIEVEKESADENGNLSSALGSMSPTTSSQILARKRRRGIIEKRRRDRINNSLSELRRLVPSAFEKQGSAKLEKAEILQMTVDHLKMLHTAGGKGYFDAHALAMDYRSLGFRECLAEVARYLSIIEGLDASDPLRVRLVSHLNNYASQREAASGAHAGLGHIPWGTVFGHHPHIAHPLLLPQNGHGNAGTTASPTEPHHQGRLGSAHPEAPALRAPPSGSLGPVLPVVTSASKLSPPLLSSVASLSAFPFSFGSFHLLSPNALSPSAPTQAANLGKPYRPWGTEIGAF

How did the “binding against the reference” value turn out when “DPF3a (BAF45c1) (from UniProt Q92784-2) S348A” was run?
Its value is “weaker”.
